Experimental data: article PMC2756588

T1: Abp1, P15891
T1 sequence (P15891 535-592, looked up): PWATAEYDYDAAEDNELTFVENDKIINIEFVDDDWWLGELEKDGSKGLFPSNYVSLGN

T2: Bbc1, P47068
T2 sequence (P47068 1-78, looked up): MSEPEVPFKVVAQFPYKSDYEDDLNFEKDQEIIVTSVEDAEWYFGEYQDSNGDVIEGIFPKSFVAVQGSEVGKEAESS

T3: Boi1, P38041
T3 sequence (P38041 1-86, looked up): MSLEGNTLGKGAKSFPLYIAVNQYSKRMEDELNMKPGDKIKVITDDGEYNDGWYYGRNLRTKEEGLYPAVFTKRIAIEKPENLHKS

T4: Boi2, P39969
T4 sequence (P39969 32-116, looked up): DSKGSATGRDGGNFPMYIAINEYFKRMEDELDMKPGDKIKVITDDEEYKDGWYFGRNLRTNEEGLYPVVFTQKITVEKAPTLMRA

T5: Bud14, P27637
T5 sequence (P27637 247-328, looked up): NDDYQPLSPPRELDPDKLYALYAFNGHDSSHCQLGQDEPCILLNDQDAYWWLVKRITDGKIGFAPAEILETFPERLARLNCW

T6: Bzz1-1, P38822
T6 sequence (P38822 478-572, looked up): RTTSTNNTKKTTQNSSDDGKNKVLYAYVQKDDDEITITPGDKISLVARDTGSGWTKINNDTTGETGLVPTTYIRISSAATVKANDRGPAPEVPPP

T7: Bzz1-2, P38822
T7 sequence (P38822 568-633, looked up): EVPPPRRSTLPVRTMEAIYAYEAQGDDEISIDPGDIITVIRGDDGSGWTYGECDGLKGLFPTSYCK

T8: Cdc25, P04821
T8 sequence (P04821 50-136, looked up): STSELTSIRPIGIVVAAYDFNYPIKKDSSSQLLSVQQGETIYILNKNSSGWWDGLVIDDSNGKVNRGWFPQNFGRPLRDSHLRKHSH

T9: Cyk3, Q07533
T9 sequence (Q07533 1-83, looked up): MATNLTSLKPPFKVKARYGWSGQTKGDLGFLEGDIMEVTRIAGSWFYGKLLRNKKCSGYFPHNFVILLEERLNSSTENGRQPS

T10: Fus1, P11710
T10 sequence (P11710 432-512, looked up): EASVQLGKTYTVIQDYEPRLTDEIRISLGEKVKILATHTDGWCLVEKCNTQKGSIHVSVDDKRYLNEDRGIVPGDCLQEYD

T11: Hof1, Q05080
T11 sequence (Q05080 590-669, looked up): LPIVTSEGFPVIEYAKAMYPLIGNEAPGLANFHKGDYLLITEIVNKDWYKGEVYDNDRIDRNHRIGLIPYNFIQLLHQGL

T12: Hse1, P38753
T12 sequence (P38753 208-285, looked up): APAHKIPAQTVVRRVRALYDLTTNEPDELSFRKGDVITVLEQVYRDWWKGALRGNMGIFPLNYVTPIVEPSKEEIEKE

T13: Lsb1, P53281
T13 sequence (P53281 45-122, looked up): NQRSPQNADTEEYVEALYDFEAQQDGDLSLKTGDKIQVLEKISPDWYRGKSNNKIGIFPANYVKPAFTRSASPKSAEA

T14: Lsb3, P43603
T14 sequence (P43603 385-451, looked up): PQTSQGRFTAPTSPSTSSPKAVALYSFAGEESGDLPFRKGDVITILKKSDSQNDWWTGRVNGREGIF

T15: Lsb4, P32793
T15 sequence (P32793 402-468, looked up): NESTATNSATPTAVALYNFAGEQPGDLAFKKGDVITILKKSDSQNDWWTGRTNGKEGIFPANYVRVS

T16: Myo5, Q04439
T16 sequence (Q04439 1072-1160, looked up): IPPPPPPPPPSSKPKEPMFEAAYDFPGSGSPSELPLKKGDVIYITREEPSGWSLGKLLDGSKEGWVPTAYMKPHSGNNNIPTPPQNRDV

T17: Nbp2, Q12163
T17 sequence (Q12163 103-180, looked up): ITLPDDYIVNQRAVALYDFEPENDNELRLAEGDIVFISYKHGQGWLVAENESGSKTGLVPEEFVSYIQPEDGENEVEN

T18: Pex13, P80667
T18 sequence (P80667 295-386, looked up): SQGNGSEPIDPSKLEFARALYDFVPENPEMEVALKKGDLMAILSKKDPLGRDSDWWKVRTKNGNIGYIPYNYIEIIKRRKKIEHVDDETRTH

T19: Pin3, Q06449
T19 sequence (Q06449 53-122, looked up): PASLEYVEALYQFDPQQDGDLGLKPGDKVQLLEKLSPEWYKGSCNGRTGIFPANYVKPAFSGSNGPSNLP

T20: Sla1-2, P32790
T20 sequence (P32790 60-140, looked up): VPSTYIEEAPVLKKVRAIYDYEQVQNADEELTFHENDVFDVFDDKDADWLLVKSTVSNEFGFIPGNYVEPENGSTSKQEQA

T21: Sla1-3, P32790
T21 sequence (P32790 344-424, looked up): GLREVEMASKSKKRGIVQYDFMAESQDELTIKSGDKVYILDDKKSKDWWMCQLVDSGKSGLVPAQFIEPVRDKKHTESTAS


Columns and labels:
Experiment in all cases: SPOT array
[1] = biological target: T1, Abp1, P15891; settings: median of control spots 935
[2] = biological target: T2, Bbc1, P47068; settings: median of control spots 796
[3] = biological target: Bem1-1, P29366; settings: median of control spots 4282
[4] = biological target: Bem1-2, P29366; settings: median of control spots 4347
[5] = biological target: T3, Boi1, P38041; settings: median of control spots 1162
[6] = biological target: T4, Boi2, P39969; settings: median of control spots 1161
[7] = biological target: T5, Bud14, P27637; settings: median of control spots 956
[8] = biological target: T6, Bzz1-1, P38822; settings: median of control spots 4446
[9] = biological target: T7, Bzz1-2, P38822; settings: median of control spots 4538
[10] = biological target: T8, Cdc25, P04821; settings: median of control spots 969
[11] = biological target: T9, Cyk3, Q07533; settings: median of control spots 1451
[12] = biological target: T10, Fus1, P11710; settings: median of control spots 1200
[13] = biological target: GST; settings: median of control spots 978
[14] = biological target: T11, Hof1, Q05080; settings: median of control spots 4086
[15] = biological target: T12, Hse1, P38753; settings: median of control spots 1727
[16] = biological target: T13, Lsb1, P53281; settings: median of control spots 388
[17] = biological target: T14, Lsb3, P43603; settings: median of control spots 406
[18] = biological target: T15, Lsb4, P32793; settings: median of control spots 397
[19] = biological target: Myo3, P36006; settings: median of control spots 468
[20] = biological target: T16, Myo5, Q04439; settings: median of control spots 471
[21] = biological target: T17, Nbp2, Q12163; settings: median of control spots 357
[22] = biological target: T18, Pex13, P80667; settings: median of control spots 1341
[23] = biological target: T19, Pin3, Q06449; settings: median of control spots 2171
[24] = biological target: Rvs167, P39743; settings: median of control spots 2707
[25] = biological target: Sho1, P40073; settings: median of control spots 1148
[26] = biological target: T20, Sla1-2, P32790; settings: median of control spots 712
[27] = biological target: T21, Sla1-3, P32790; settings: median of control spots 5475

Bem1-2, P29366, sequence (P29366 139-227): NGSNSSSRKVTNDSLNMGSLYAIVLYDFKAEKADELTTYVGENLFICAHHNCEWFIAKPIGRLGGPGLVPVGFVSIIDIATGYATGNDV
Bem1-1, P29366, sequence (P29366 55-141): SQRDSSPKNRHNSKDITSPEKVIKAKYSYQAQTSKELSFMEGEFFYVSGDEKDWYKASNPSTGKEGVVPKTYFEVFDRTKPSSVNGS
Rvs167, P39743, sequence (P39743 419-482): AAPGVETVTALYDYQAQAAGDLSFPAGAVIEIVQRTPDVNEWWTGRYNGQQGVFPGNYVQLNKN
Sho1, P40073, sequence (P40073 287-367): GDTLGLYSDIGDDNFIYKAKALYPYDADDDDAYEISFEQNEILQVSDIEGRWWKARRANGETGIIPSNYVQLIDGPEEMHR

| Binder | SPOT intensity [1] | SPOT intensity [2] | SPOT intensity [3] | SPOT intensity [4] | SPOT intensity [5] | SPOT intensity [6] | SPOT intensity [7] | SPOT intensity [8] | SPOT intensity [9] | SPOT intensity [10] | SPOT intensity [11] | SPOT intensity [12] | SPOT intensity [13] | SPOT intensity [14] | SPOT intensity [15] | SPOT intensity [16] | SPOT intensity [17] | SPOT intensity [18] | SPOT intensity [19] | SPOT intensity [20] | other results |
| --- | --- | --- | --- | --- | --- | --- | --- | --- | --- | --- | --- | --- | --- | --- | --- | --- | --- | --- | --- | --- | --- |
| ERPKRRAPPPVPKKP | 673 | 282 | 0 | 279 | 0 | 0 | 0 | 160 | 791 | 4 | 0 | 0 | 0 | 0 | 57 | 326 | 188 | 89 | 358 | 180 | SPOT intensity [21]: 58; SPOT intensity [22]: 62; SPOT intensity [23]: 11; SPOT intensity [24]: 10; SPOT intensity [25]: 311; SPOT intensity [26]: 0; SPOT intensity [27]: 2610 |
| RPPRPPPKPLHLRTE | 692 | 15 | 4 | 458 | 0 | 3 | 0 | 30 | 38 | 0 | 0 | 0 | 0 | 3 | 539 | 266 | 306 | 201 | 121 | 33 | SPOT intensity [21]: 86; SPOT intensity [22]: 479; SPOT intensity [23]: 5; SPOT intensity [24]: 12; SPOT intensity [25]: 780; SPOT intensity [26]: 1; SPOT intensity [27]: 43 |
| DKSRPPRPPPKPLHL | 675 | 5 | 0 | 57 | 0 | 0 | 1 | 36 | 1 | 0 | 0 | 0 | 0 | 0 | 36 | 4 | 216 | 177 | 160 | 44 | SPOT intensity [21]: 0; SPOT intensity [22]: 144; SPOT intensity [23]: 0; SPOT intensity [24]: 0; SPOT intensity [25]: 155; SPOT intensity [26]: 0; SPOT intensity [27]: 0 |

Second part, led by results:

| SPOT intensity [1] | SPOT intensity [2] | SPOT intensity [3] | SPOT intensity [4] | SPOT intensity [5] | SPOT intensity [6] | SPOT intensity [7] | SPOT intensity [8] | SPOT intensity [9] | SPOT intensity [10] | SPOT intensity [11] | SPOT intensity [12] | SPOT intensity [13] | SPOT intensity [14] | SPOT intensity [15] | SPOT intensity [16] | SPOT intensity [17] | SPOT intensity [18] | SPOT intensity [19] | SPOT intensity [20] | Binder | other results |
| --- | --- | --- | --- | --- | --- | --- | --- | --- | --- | --- | --- | --- | --- | --- | --- | --- | --- | --- | --- | --- | --- |
| 0 | 0 | 0 | 0 | 0 | 0 | 0 | 0 | 0 | 0 | 0 | 0 | 0 | 0 | 0 | 0 | 0 | 0 | 319 | 244 | PHNPSPFFPPPDFND | SPOT intensity [21]: 0; SPOT intensity [22]: 70; SPOT intensity [23]: 0; SPOT intensity [24]: 0; SPOT intensity [25]: 0; SPOT intensity [26]: 0; SPOT intensity [27]: 0 |
| 42 | 0 | 0 | 0 | 0 | 0 | 0 | 0 | 0 | 0 | 0 | 0 | 0 | 0 | 0 | 0 | 0 | 0 | 0 | 0 | ALKQKKIPPPFKPHL | SPOT intensity [21]: 0; SPOT intensity [22]: 0; SPOT intensity [23]: 0; SPOT intensity [24]: 0; SPOT intensity [25]: 0; SPOT intensity [26]: 0; SPOT intensity [27]: 0 |
| 339 | 4 | 0 | 0 | 2 | 0 | 0 | 50 | 0 | 2 | 0 | 0 | 0 | 0 | 20 | 7 | 162 | 114 | 104 | 10 | KDKSRPPRPPPKPLH | SPOT intensity [21]: 2; SPOT intensity [22]: 8; SPOT intensity [23]: 0; SPOT intensity [24]: 0; SPOT intensity [25]: 202; SPOT intensity [26]: 0; SPOT intensity [27]: 1 |
